# Test results reported in patent publication US20260209362A1 (VIB VZW, published 2026).
# Substitutions are numbered along the chain they refer to.
# T1: biotinylated recombinant human IL-12Rβ2 (human, UniProt Q99665 24-622, random biotinylated)
# T1 construct: Recombinant protein produced in-house; also called hIL-12RB2; human IL-12RB2
# T1 sequence: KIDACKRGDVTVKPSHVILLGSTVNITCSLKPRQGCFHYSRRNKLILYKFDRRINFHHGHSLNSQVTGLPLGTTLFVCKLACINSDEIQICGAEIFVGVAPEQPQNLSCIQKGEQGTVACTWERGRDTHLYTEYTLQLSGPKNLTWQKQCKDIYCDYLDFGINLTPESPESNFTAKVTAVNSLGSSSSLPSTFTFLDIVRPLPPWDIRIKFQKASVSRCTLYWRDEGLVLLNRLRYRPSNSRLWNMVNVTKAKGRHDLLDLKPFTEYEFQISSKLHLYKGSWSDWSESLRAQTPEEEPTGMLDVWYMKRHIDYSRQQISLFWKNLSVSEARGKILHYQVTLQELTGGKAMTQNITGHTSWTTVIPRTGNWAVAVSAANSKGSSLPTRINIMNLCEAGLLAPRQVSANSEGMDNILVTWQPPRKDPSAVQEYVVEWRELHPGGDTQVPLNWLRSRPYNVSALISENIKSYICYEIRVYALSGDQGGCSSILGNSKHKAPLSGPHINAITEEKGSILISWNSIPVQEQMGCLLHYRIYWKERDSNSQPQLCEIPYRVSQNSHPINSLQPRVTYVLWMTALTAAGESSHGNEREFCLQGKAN
# T2: biotinylated recombinant mouse IL-12Rβ2 (mouse, UniProt P97378 24-637, random biotinylated)
# T2 construct: Recombinant protein produced in-house; also called mIL-12RB2; mouse IL-12RB2
# T2 sequence: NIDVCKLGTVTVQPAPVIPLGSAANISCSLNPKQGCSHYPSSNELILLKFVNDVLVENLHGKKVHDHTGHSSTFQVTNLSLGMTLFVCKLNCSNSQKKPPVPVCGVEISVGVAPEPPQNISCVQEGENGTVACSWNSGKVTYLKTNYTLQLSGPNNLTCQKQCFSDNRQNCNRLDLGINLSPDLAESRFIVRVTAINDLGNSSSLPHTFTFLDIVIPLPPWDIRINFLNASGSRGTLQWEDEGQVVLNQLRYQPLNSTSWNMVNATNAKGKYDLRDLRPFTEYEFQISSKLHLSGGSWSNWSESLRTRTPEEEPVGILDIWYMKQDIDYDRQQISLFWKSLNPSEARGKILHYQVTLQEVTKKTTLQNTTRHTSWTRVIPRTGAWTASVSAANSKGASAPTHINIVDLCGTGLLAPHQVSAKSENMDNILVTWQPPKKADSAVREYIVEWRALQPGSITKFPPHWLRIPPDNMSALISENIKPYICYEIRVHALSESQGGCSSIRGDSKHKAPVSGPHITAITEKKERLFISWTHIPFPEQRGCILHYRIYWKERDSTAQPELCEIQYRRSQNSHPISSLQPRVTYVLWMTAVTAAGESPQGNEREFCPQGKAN
# T3: mouse IL-12Rβ2 expressed on cells (mouse, UniProt P97378 24-874)
# T3 construct: HEK293T cells, stably transduced (cDNA NM_008354); also called mIL-12RB2
# T3 sequence: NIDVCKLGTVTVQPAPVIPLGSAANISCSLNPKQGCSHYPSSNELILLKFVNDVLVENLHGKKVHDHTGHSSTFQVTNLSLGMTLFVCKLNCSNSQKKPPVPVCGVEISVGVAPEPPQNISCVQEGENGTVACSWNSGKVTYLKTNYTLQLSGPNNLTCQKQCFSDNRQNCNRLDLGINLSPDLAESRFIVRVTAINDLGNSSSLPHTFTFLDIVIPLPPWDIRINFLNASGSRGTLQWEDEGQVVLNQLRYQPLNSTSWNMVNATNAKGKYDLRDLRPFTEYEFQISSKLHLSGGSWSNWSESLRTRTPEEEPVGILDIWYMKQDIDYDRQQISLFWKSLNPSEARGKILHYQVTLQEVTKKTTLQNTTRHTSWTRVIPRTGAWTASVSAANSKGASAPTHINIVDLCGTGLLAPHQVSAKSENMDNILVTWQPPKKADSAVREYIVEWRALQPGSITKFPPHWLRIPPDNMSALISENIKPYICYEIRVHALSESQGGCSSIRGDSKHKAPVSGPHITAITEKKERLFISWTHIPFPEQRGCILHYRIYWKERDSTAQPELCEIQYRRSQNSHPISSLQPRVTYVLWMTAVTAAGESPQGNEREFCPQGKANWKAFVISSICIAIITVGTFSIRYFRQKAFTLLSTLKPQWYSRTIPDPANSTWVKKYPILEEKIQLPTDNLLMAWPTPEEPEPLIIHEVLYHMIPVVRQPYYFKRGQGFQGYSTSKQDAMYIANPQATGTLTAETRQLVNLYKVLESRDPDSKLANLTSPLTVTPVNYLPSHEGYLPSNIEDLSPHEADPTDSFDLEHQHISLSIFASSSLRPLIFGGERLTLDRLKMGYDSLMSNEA
# B1: anti-IL-12Rβ2 VHH clone 2CRH10 (clone ID 20362) (VHH, not shown: small tags and cut ends)
# VHH: QVQLQESGGGLVQAGGSLVLSCAASGSAALIFLMSWYRQAPGKQRELVAEVSRGGSTTYADSVEGRFHISRDNAKNIVDLQMNSLKPEDTAVYYCKADQNYGDSLRSSWGRGTQVTVSS
# notes: periplasmic extract
# B2: anti-IL-12Rβ2 VHH clone 3CRH5 (clone ID 20373) (VHH, not shown: small tags and cut ends)
# VHH: B1 VHH with H68T, R111Q
# notes: periplasmic extract
# B3: anti-IL-12Rβ2 VHH clone 3CRHS184 (clone ID 20441) (VHH, not shown: small tags and cut ends)
# VHH: B1 VHH with G54Y, H68T, N100Y, V115L
# notes: periplasmic extract
# B4: anti-IL-12Rβ2 VHH clone 2CRH73 (clone ID 20369) (VHH, not shown: small tags and cut ends)
# VHH: B1 VHH with V19R, S21T, A23T, G54R, H68T, N100Y
# notes: periplasmic extract
# B5: anti-IL-12Rβ2 VHH clone 3CRHS9 (clone ID 20415) (VHH, not shown: small tags and cut ends)
# VHH: QVQLQESGGGLVQPGGSLRLSCTASGSIVSIYNMDWYRQAPGNEREWVASITSSGDPYYDGSAKGRFTISRDNAKMTVYLQMNSLKPEDTAVYYCKVPTEKGNYWGQGTQVTVSS
# notes: periplasmic extract
# B6: anti-IL-12Rβ2 VHH clone 3CRH18 (clone ID 20377) (VHH, not shown: small tags and cut ends)
# VHH: B5 VHH with S27N, E44Q, K86R
# notes: periplasmic extract
# B7: anti-IL-12Rβ2 VHH clone 3CRHS3 (clone ID 20414) (VHH, not shown: small tags and cut ends)
# VHH: B5 VHH with V29F, E44Q, G61A, A63V, N73S, V97L
# notes: periplasmic extract
# B8: anti-IL-12Rβ2 VHH clone 3CRH27 (clone ID 20379) (VHH, not shown: small tags and cut ends)
# VHH: B5 VHH with P14A
# notes: periplasmic extract
# B9: anti-IL-12Rβ2 VHH clone 3CRHS54 (clone ID 20422) (VHH, not shown: small tags and cut ends)
# VHH: B5 VHH with K86E, Y94F
# notes: periplasmic extract
# B10: anti-IL-12Rβ2 VHH clone 3CRHS55 (clone ID 20423) (VHH, not shown: small tags and cut ends)
# VHH: B5 VHH with P14A, R19N, V29I, E44Q, S54N, P57S, K101N
# notes: periplasmic extract
# B11: anti-IL-12Rβ2 VHH clone 3CRH68 (clone ID 20388) (VHH, not shown: small tags and cut ends)
# VHH: B5 VHH with V29L, A40V, E44Q, S53P, A63V, T77M
# notes: periplasmic extract
# B12: anti-IL-12Rβ2 VHH clone 3CAM36 (VHH, not shown: small tags and cut ends)
# VHH: QVQLQESGGGLVQAGESLTLSCTASGRTFSSYGMGWFRQAPGKERDFVAAISRDARYTDYADSVKGRFTISKDNAKNTAYLQMNSLNPEDTAVYFCAAAYTYSGSHYVTARSGDYNYWGQGTQVTVSS
# notes: tested as periplasmic extract; also called 20511
# B13: anti-IL-12Rβ2 VHH clone 3CAM10 (VHH, not shown: small tags and cut ends)
# VHH: QVQLQESGGGLVQAGGSLRLSCAASGRTFSDYPMAWFRQAPGKEREFVAGISNGGTAYYADSVKGRFTISRDNTRNTVYLQMNRLKVEDTAVYYCAAVHLLSNLRGADPHEADYWGQGTQVTVSS
# notes: tested as periplasmic extract; also called 20507
# B14: anti-IL-12Rβ2 VHH clone 3CAM11 (VHH, not shown: small tags and cut ends)
# VHH: QVQLQESGGGLVQAGGSLRLSCAASGRNLSTYAMGWIRQAPGKEREFVAAISWAGSTTYYADSVKGRFIISRDNAKNTLNLQMNSLKPEDTAVYYCAAPPYVTTTYYATPPSDIRDYHYWGQGTQVTVSS
# notes: tested as periplasmic extract; also called 20508
# B15: anti-IL-12Rβ2 VHH clone 2CAMS29 (VHH, not shown: small tags and cut ends)
# VHH: QVQLQESGGGLVQAGGSLRLSCAASGLTSSTYVIGWFRQAPGKEREFVAAIMLSGGTTIYADSLKGRCTIYKDNAKNTVYLQMNSLKLEDTAVYYCASGLIYRYSDFPRSQKYNFWGQGTQVTVSS
# notes: tested as periplasmic extract; also called 20534
# B16: anti-IL-12Rβ2 VHH clone 3CAHM40 (VHH, not shown: small tags and cut ends)
# VHH: QVQLQESGGGSVQAGGSLRLSCAVSGRTVSDYAMGWFRQAPGKEREFVAAMSSSETTVYPNSMKGRITISRDNAKNAVYLQLNALKPEDTAVYYCSMGPIATFQGLARQNEYHYWGQGTQVTVSS
# notes: tested as periplasmic extract
# B17: anti-IL-12Rβ2 VHH clone 3CRHM12 (VHH, not shown: small tags and cut ends)
# VHH: B16 VHH with M63V, L82M, A101V
# notes: tested as periplasmic extract
# B18: anti-IL-12Rβ2 VHH clone 2CAM88 (VHH, not shown: small tags and cut ends)
# VHH: QVQLQESGGGLVPPGDSLRLSCAASGRTFSSYTMGWFRQAPGKEREFVARISQDGGSTYYADSMKGRFTVARDNAKNTVYLQMNSLKPEDTAVYYCAADMIKWGLRVGVDSFKYWGQGTQVTVSS
# notes: tested as periplasmic extract
# B19: anti-IL-12Rβ2 VHH clone 3CRHM85 (VHH, not shown: small tags and cut ends)
# VHH: QVQLQESGGGLVQPGGSLRLSCAASRRTFSKHAMAWFRQAPGKEREFVAVVRWSGIITYYADSVKGRFTISRDDAKNTVYLQMDSLKPEDTAVYYCAAGDYRGNGYYVPGMYDYWGQGTQVTVSS
# notes: tested as periplasmic extract; also called 21061
# B20: anti-IL-12Rβ2 VHH clone 2CRMS29 (VHH, not shown: small tags and cut ends)
# VHH: QVQLQESGGGLVQAGGPLRLSCAASGRTFSGSAMGWFRQAPGKEREFVAAITWVGGFTYYADSVKGRFTISRDNAKNTVYLQMNNLSPEDTAVYSCAAQAYHKSGYYYPPLYDYWGQGTQVTVSS
# notes: tested as periplasmic extract; also called 20521
# B21: anti-IL-12Rβ2 VHH clone 3CRHM20 (VHH, not shown: small tags and cut ends)
# VHH: QVQLQESGGGLVQAGGSLRLSCAASGRTFSKSTMGWFRQTPGKEREFVAAITWTDTEVYANSVKDRFTISRDNAKNTFYLQMHSLKLEDTAVYYCAGDRYGSSRDSVFSSPTNYPYWGQGTQVTVSS
# notes: tested as periplasmic extract; also called 21055
# B22: anti-IL-12Rβ2 VHH clone 2CAM71 (VHH, not shown: small tags and cut ends)
# VHH: QVQLQESGGGLVQAGGSLRLSCAASGRTLSNSVMGWFRQAPGKEREFVAALMWSAGSEFYTDSVKGRFSISGDGAKNTVYLQMNSLKAEDTAVYYCAAKNPPHRWSDIGKSPHYEYWGQGTQVTVSS
# notes: tested as periplasmic extract
# Molecular target: T1, biotinylated recombinant human IL-12Rβ2
# Assay: BLI, P.E., off-rate ranking
Response,koff [s⁻¹],Binder
0.496,0.00524,B1
0.491,0.00337,B2
0.515,0.00385,B3
0.547,0.00536,B4
0.222,0.0034,B5
-0.19,–,B6
0.327,0.00225,B7
0.138,0.00264,B8
0.203,0.00272,B9
0.204,0.00296,B10
0.426,0.00444,B11

# Molecular target: T2, biotinylated recombinant mouse IL-12Rβ2
# Assay: ELISA, P.E., biotinylated antigen
row,ELISA mIL-12RB2/control,Binder
1,0.886,B1
2,0.808,B2
3,1.06,B3
4,0.606,B4
5,1.09,B5
6,1.8,B6
7,1.05,B7
8,1.44,B8
9,1.26,B9
10,1.11,B10
11,1.03,B11

# Molecular target: T1, biotinylated recombinant human IL-12Rβ2
# Assay: ELISA, P.E., biotinylated antigen
row,ELISA hIL-12RB2/control,Binder
1,6.22,B1
2,8.64,B2
3,4.17,B3
4,4.37,B4
5,5.08,B5
6,5.84,B6
7,6.39,B7
8,10.2,B8
9,7.85,B9
10,3.76,B10
11,4.66,B11

# Molecular target: T3, mouse IL-12Rβ2 expressed on cells
# Assay: flow cytometry, P.E. VHH on HEK293T cells stably expressing mIL-12RB2
% cells bound [%],dMFI,Binder
29,151,B12
41.7,212,B13
37.8,181,B14
14.5,99,B15
1.97,-1.8,B16
2.2,4.8,B17
14.8,93,B18
1.7,3.5,B19
8.42,58,B20
2.83,7.4,B21
58.3,322,B22
